Source: PMC4417145

Biological target: T1, HMGA2 (high-mobility-group protein AT-hook 2) (mammalian (species ), UniProt P52926 1-109)
T1 sequence: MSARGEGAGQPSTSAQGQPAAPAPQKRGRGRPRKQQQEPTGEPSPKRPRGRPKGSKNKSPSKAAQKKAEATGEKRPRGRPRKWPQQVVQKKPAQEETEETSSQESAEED
Assay: PDI-ELISA

B1: FL842/FL843 (SELEX1 duplex) (dsDNA)
DNA 1: CCCCCCATATTCGCGATTATTGCGC
DNA 2: GCGCAATAATCGCGAATATGGGGGG
binding result: binds
